System: PSN1 or SUIT2
Test: In vivo imaging of IRDye800-labeled antibodies in tumor-bearing mice
Set-up: species or system BALB/c nude mouse
Conditions: imaged 1, 3, 7 and 14 days after administration
Method: PSN1 or SUIT2 was transplanted to the back of each BALB/c nude mouse (female, 6-week-old); 10 days after the transplantation, each antibody (labeled with IRDye800 (Li-Cor)) was administered from a tail vein of the mouse. 1 day, 3 days, 7 days, and 14 days after the administration, the antibody distribution was analyzed using the in vivo imaging apparatus OV110 (Olympus).
In the figure, CD20 stands for the antihuman CD20 antibody, EpCAM for the antihuman EpCAM antibody, and Col. 4 for the antimouse type IV collagen antibody.

antihuman CD20 antibody: monoclonal antibody against human B cells, does not react with SUIT2; control
accumulation in tumor tissue (IRDye800-labeled antibody via tail vein 10 days after transplantation): accumulated selectively in tumor tissue due to an EPR effect
duration of stay in / disappearance from tumor tissue (IRDye800-labeled antibody via tail vein): disappeared from the tumor tissue earlier than the antimouse type IV collagen antibody

From patent US20110287036A1, “NOVEL CANCER TARGETING THERAPY USING COMPLEX OF SUBTANCE CAPABLE OF BINDING SPECIFICALLY TO CONSTITUENT FACTOR OF CANCER STROMA AND ANTI-TUMOR COMPOUND” (RIKEN, priority 2008, published 2011)
